Measurements as given in US9486502B2, “Methods of administering interferon gamma to absorb fluid from the subretinal space” (The United States of America, as represented by the …, priority 2008, dated 2016).
“Also recorded” adds a separate entry of the source.

How the values were obtained:
[1] = system: hfCHC cells; assay: BrdU incorporation assay, human fetal choroidal cell proliferation; format: cell-based
[2] = system: hfRPE cells; assay: BrdU incorporation assay, hfRPE proliferation; format: cell-based, human
Procedure: BrdU incorporation was performed as described in Li, R. et al., 2007, Invest Ophthalmol Vis Sci, 48, 5722-5732, incorporated by reference in its entirety herein. IFNγ, TNFα, and IL-1β were obtained from Peprotech, Rocky Hill, N.J., and Universal Type I Interferon (cat: 11200-1) or human interferon beta la were from PBL biomedical laboratories (New Brunswick, N.J.). Cumulative effects were measured by adding VEGF165, EGF and bFGF (Peprotech), and PDGF-BB (R & D Systems) with IFNγ. Anti-human IFNγ R1 blocking antibody (R & D Systems, Minneapolis, Minn.), JAK inhibitor I, AG490, or JAK3 inhibitor II (EMD Biosciences, Gibbstown, N.J.) was added to the cells one hour prior to the addition of IFNγ. SFM was used as the negative control and SFM supplemented with 5% serum was used as positive control. After treatment for 48 hours, RPE cells were incubated with BrdU for 24 hours. The proliferation rate was evaluated using a Cell proliferation ELISA BrdU Kit (Roche, Ind.). Quadruplicate wells were used for each condition and the experiments were repeated at least two times using cell cultures from different donors. Cell viability was evaluated using a Live/Dead Viability/Cytotoxicity Kit (Invitrogen).

[3] = system: hfRPE cells; assay: wound healing assay, hfRPE migration; format: cell-based, human; details: 48 hours, proliferation suppressed with mitomycin C
Procedure: The wound healing assay was used to study the effects of inflammatory cytokines on hfRPE cell migration, as described previously in Li, R., et al. Invest Ophthalmol Vis Sci, 2007, 48, 5722-5732, incorporated herein by reference in its entirety. Cell proliferation was suppressed by incubation with 10 μg/ml mitomycin C (Sigma) for 2 hours before all migration experiments. A circular denuded area (7 mm in diameter) was made in each well using a custom designed cell scraper. After incubation with various inflammatory cytokines for 48 hours, cells were fixed with cold methanol and stained with ethidium homodimer-1 (EthD-1, Invitrogen) according to the manufacturer's instructions. Cell migration was quantified by counting the average number of cells that migrated into the denuded area in 16 microscope fields surrounding the circumference of the denuded area. Each condition was tested in triplicate and repeated using cells from different donors.

[4] = system: hfRPE cells; assay: immunoblotting of JAK-STAT / MAP kinase signalling proteins in hfRPE; format: cell-based, human
Procedure: Immunoblotting was performed as previously described in Li, R. et al., 2007, Invest Ophthalmol Vis Sci, 48, 5722-5732, incorporated by reference in its entirety herein. Primary cultures of hfRPE and native human adult RPE cells were lysed using RIPA buffer (Sigma-Aldrich) supplemented with proteinase inhibitor cocktail (Roche). Total protein in the supernatant was measured (BCA™ protein assay, Pierce Biotechnology) and 20 µg of protein from cell lysate supernatants was electrophoresed on a 4-12% gradient Bis-Tris NuPAGE gel (Invitrogen) under reduced or non-reduced conditions. Resolved proteins were transferred to nitrocellulose membranes (membranes and XCell II™ Blot Module, Invitrogen).
The membranes were incubated with mouse anti-human IFNγ R1 monoclonal antibody (R&D Systems), anti-human IFNγ R2 (Santa Cruz Biotechnology), anti-human IFNAR1, anti-human IFNAR2 (Abcam), anti-IRF1, anti-IRF2, anti-IRF8 (Santa Cruz Biotechnology) or anti-CFTR antibody 217 (Cystic Fibrosis Foundation Therapeutics Inc., Bethesda, Md.), after blocking non-specific binding ((StartingBlock™ T20 (TBS), Pierce Biotechnology). Membranes were then incubated with horseradish peroxidase (HRP) conjugated secondary antibody (Pierce Biotechnology) and visualized using Supersignal® West Dura Extended Duration Substrate (Pierce Biotechnology) and imaged using an Autochemie™ system (UVP, Upland, Calif.). The antibody-specific bands for IRF-1, IRF-2, ICSBP (IRF-8) and GAPDH were around 91 kDa, […], respectively.
For phosphorylation studies, cells were starved for 24 hours in serum-free medium (“SFM,” MEM-α modification medium containing non-essential amino acids and Glutamine-Penicillin-Streptomycin). Cells were treated with IFNγ (5-50 ng/ml) in SFM at various time points at 37° C. and lysed with RIPA buffer supplemented with proteinase inhibitor cocktail (Roche) and Halt™ phosphatase inhibitor cocktail (Pierce Biotechnology). 40 μg of protein was electrophoresed. As in the immunoblotting experiments described above, except that the membranes were incubated with anti-phospho-p38 MAP kinase (Thr180/Tyr182), anti-p38 MAP kinase, anti-phospho-Stat1 (Tyr701), anti-phospho-Stat1 (Ser727) or anti-Stat1 antibodies, respectively (each from Cell signaling Technology, Danvers, Mass.). The antibody-specific bands for STAT1/phospho-STAT1 (Tyr701) were around 84 kDa. GAPDH was blotted together with anti-GAPDH antibody (Abcam) and used as loading control. Cyclohexamide (“CHX”; Sigma-Aldrich), a protein synthesis inhibitor, was used at 62 μM.
For CFTR immunoblotting analysis, confluent monolayers of hfRPE were homogenized on ice in isolation solution (250 mM Sucrose, 10 mM Tris-HCl, 10 mM MgCl2, 1 mM CaCl2, pH 7.4) supplemented with Halt™ protease inhibitor cocktail, EDTA-free. Nuclei and intact cells were removed with centrifugation (900×g for 10 minutes at 4° C., followed by centrifugation at 10,000×g for 5 minutes). Crude plasma membrane proteins were collected after centrifugation at 100,000×g for 1 hour at 4° C.

[5] = system: hfRPE cells; assay: cyclic AMP assay (cAMP-screen ELISA); format: cell-based, human; details: IFNγ 0.5, 5, 50 ng/ml, all time points
Procedure: Intracellular cAMP levels were assayed with a cAMP-screen ELISA system (Applied Biosystems) following the manufacturer's protocol. Briefly, confluent monolayers of hfRPE cells cultured in 24-well plates were starved in SFM for 4 hours and then treated with IFNγ (0.5, 5, and 50 ng/ml), forskolin (10 μM), or forskolin (10 μM) and isobutylmethylxanthine (IBMX; 0.5 mM) for 5 minutes, 30 minutes, 4 hours, 16 hours, or 24 hours. For some of the experiments, cells were treated with IBMX (0.5 mM) for 30 minutes, and then IFNγ or forskolin was added. Cells were lysed and the supernatant collected after centrifugation. Samples were incubated with anti-cAMP antibody and cAMP-AP in a 96-well assay plate; serial dilutions of cAMP served as standards. The plate was incubated with substrate and the chemiluminescence signal measured with a SpectraMax M2 microplate reader (Molecular Devices). The standard curve was obtained by best fit with a weighted 4-parameter logistic curve and the cAMP concentration was calculated and normalized with total protein concentration.

B1: IFNγ: pleiotropic cytokine produced by T- and NK-cells; obtained from Peprotech (protein, UniProt P01579 24-161, looked up)
Interferon gamma: QDPYVKEAENLKKYFNAGHSDVADNGTLFLGILKNWKEESDRKIMQSQIVSFYFKLFKNFKDDQSIQKSVETIKEDMNVKFFNSNKKKRDDFEKLTNYSVTDLNVQRKAIHELIQVMAELSPAAKTGKRKRSQMLFRG
effect on hfCHC (human fetal choroidal) cell proliferation [1]: stimulatory effect
effect on hfRPE proliferation (BrdU incorporation) ([2]; 0.5-80 ng/ml): strong inhibitory effect
effect on hfRPE proliferation induced by bFGF, PDGF-BB, VEGF ([2]; IFNγ 5 ng/ml): significantly inhibited
effect on hfRPE cell proliferation ([2]; IFNγ alone 5 ng/ml, 5% FBS or 0% FBS): significantly inhibited
concentration as low as which hfRPE proliferation was inhibited ([2]; other experiments, data not shown): 0.02 ng/mL
effect on hfRPE cell migration [3]: significantly inhibited
STAT1 tyrosine phosphorylation ([4]; IFNγ 5 ng/ml, 15 minutes): tyrosine phosphorylated
IRF-1 protein ([4]; IFNγ 4 hours): activated; also recorded: significantly increased
IRF-2 protein ([4]; IFNγ 4 hours): unaffected; also recorded: no effect
IRF-8 (ICSBP) protein ([4]; IFNγ-treated hfRPE): below the detection limit; also recorded: no detectable change
effect on CFTR protein level ([4]; IFNγ-treated hfRPE, not statistically significant): small decrease
STAT1 protein signal ([4]; after IFNγ treatment): significantly increased; also recorded: significantly up-regulated
effect on JNK or P44/P42 phosphorylation ([4]; all six time points tested): no effect
period over which IFNγ-induced phosphorylation of STAT1 was observed ([4]; hfRPE): 2 to 48 h
time to IFNγ-induced phosphorylation of P38 MAPK ([4]; hfRPE, serum starved 24 hours): 2 to 5 min
effect on total intracellular cAMP [5]: no apparent effect
